Drawing on US20110020273A1, this text covers avidity, fold over TF1 for 1 substance.

The target of the assay is fusion protein containing the A3B3 domain of CEA (UniProt P06731). The assay is described as follows: competitive ELISA against HRP-conjugated hMN-14 IgG (1 nM).
Chain of fusion protein containing the A3B3 domain of CEA (P06731 499-676): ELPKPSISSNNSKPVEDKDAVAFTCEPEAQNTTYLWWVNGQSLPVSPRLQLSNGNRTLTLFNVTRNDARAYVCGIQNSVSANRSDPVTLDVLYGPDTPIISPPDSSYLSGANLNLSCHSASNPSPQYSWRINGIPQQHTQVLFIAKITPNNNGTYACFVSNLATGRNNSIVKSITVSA

The substance TF2 (bispecific antibody) showed an avidity, fold over TF1 of 2 fold.
